Laboratory results published in article PMC6327262.

Substrate: O=[N+]([O-])c1ccc(O[C@@H]2O[C@H](CO)[C@@H](O)[C@H](O)[C@H]2O)cc1
Experiment: purified protein
Conditions: 25 mM sodium phosphate pH 6.0, 45 °C, 1 μg/mL enzyme, 0.1-5.0 mM substrate, no inhibitor

B1: rBGLa (Limosilactobacillus antri DSM 16041) (protein)
chain: MVKIDLQFVQGLTLEERAALVSGKDFWFTAKVPGVDRMMMSDGPSGLRKQDIDVAPTDVNNSVDAVCFPSSALTASSFDDQLLFKLGHHLGVAASAEKLGVLLGPGVNIKRSPLAGRNFEYFSEDPLLAGRMGTAYVKGVQEEGVGVSVKHFAANNRENQRFTSSSNIDERALREIYLAQFERIVKEAQPATLMCSYNRLNGTLNSQNQRLLTEILRNEWGFQGLVMSDWGAVADHVAAIKAGLDLEMPGKDQASVDEIVQAVKEGRLQESTLNRSALRVLQMVEKWGKDVSRTESYDKEEQHEFARQVADDSIVLLKNDNQELPLHTGGSLAVIGELAAKPRFEGGGSSHVNAHHLVTPLAAAPTNAKYAVGYSLTETAPNEELTKEAVQLAKQSDQVVFFAGFPERMETEGFDKDSIALPANQNALLREVLKVNPHVTVVLQNGSVVEMPWADGVPAIVETYLAGEAVGEATWDILTGKVNPSGKLSESFPLRLQDNPTYGTFARDHDEEDYHEGIFVGYRYYDLHEMPVRFPFGHGLSYTDFTYSDLTVSEEDNDVKVRFTVTNSGQVAGKEVAQVYVANHVSRVEMPVKELRDFTKLALAPGESKTVTLTLPRRAFSYYNVAQEQWEADNGEYEIMVGSSSRDIRLRTTFTLTIGVNPVGEITGDTYIGDIWNDQDPKVQAALKSSGLYEVLQPMMADKDWVAISANMPLRSLAATGIQEEVRDAFLRALK
  Km: 1840 ± 70 µM
  kcat: 407 s⁻¹
  kcat/Km: 221000 M⁻¹ s⁻¹
